# Measurements reported in publication PMC3701320, “Crystal Structures of Malonyl-Coenzyme A Decarboxylase Provide Insights into Its Catalytic Mechanism and Disease-Causing Mutations” (Structure(London, England:1993), 2013).
# B1: Agrobacterium vitis malonyl-CoA decarboxylase (AvMCD), residues 1-448 (enzyme)
# chain: MAGTSFLSDLLSGVTERGRALLFSGSKARDRVVDTDIETLCEMLLSSRGEASGMAIAAEILDRWSRFNAAEAVQFLHMLSDRFGAEAAALDKAIDAYRTDKSPMAVIALHNAAEPRRQELLRRLNLAPNGTQKLVRMRERLLETKEDRADLGAVDTDFAHLFSSWFNRGFLTLQPIDWTTPAHILEKIIKYEAVHEIAGWEELRRRLAPADRRCFAFFHPRLRDDPLVFVEVALTRSIPSAIADVLDESRDHIGADTATTAVFYSISNCQDGLRGISFGNFLIKQVVEDLRRDLPGLKEFVTLSPVPGFARWISKIRDPKSGFPLSPEDRNTLVLLDDPTWPEDKARADAVERILLPLAARYFITERTPDNRPVDPVARFHLGNGARLERLNFLGDRSVKAMRQAHGLMVNYLYKLEDIETNHEALAQRGEVAASPAVKALQGKIEPI
# modifications: selenomethionyl (Se-Met labeled) protein
# B2: Wild-type human malonyl-coenzyme A decarboxylase (HsMCD), residues 40-491 (enzyme, UniProt O95822 40-491, looked up)
# chain: MDELLRRAVPPTPAYELREKTPAPAEGQCADFVSFYGGLAETAQRAELLGRLARGFGVDHGQVAEQSAGVLHLRQQQREAAVLLQAEDRLRYALVPRYRGLFHHISKLDGGVRFLVQLRADLLEAQALKLVEGPDVREMNGVLKGMLSEWFSSGFLNLERVTWHSPCEVLQKISEAEAVHPVKNWMDMKRRVGPYRRCYFFSHCSTPGEPLVVLHVALTGDISSNIQAIVKEHPPSETEEKNKITAAIFYSISLTQQGLQGVELGTFLIKRVVKELQREFPHLGVFSSLSPIPGFTKWLLGLLNSQTKEHGRNELFTDSECKEISEITGGPINETLKLLLSSSEWVQSEKLVRALQTPLMRLCAWYLYGEKHRGYALNPVANFHLQNGAVLWRINWMADVSLRGITGSCGLMANYRYFLEETGPNSTSYLGSKIIKASEQVLSLVAQFQKNS
# notes: Malonyl-CoA decarboxylase (MCD, E.C. 4.1.1.9), human, residues 40-491, corresponding to the mature mitochondrial form; The His6-tag is TEV-cleavable (vector pNIC28-Bsa4, GenBank EF198106); also called human MCD; Wild-type HsMCD
# B3: HsMCD E58A/K59A/E278A/E279A/K280A quintuple surface entropy reduction (SER) mutant, residues 40-491 (enzyme, human, UniProt O95822 40-491, looked up)
# chain: MDELLRRAVPPTPAYELRAATPAPAEGQCADFVSFYGGLAETAQRAELLGRLARGFGVDHGQVAEQSAGVLHLRQQQREAAVLLQAEDRLRYALVPRYRGLFHHISKLDGGVRFLVQLRADLLEAQALKLVEGPDVREMNGVLKGMLSEWFSSGFLNLERVTWHSPCEVLQKISEAEAVHPVKNWMDMKRRVGPYRRCYFFSHCSTPGEPLVVLHVALTGDISSNIQAIVKEHPPSETAAANKITAAIFYSISLTQQGLQGVELGTFLIKRVVKELQREFPHLGVFSSLSPIPGFTKWLLGLLNSQTKEHGRNELFTDSECKEISEITGGPINETLKLLLSSSEWVQSEKLVRALQTPLMRLCAWYLYGEKHRGYALNPVANFHLQNGAVLWRINWMADVSLRGITGSCGLMANYRYFLEETGPNSTSYLGSKIIKASEQVLSLVAQFQKNS
# notes: Malonyl-CoA decarboxylase (MCD), human, residues 40-491 (mature mitochondrial form) with five alanine substitutions for surface entropy reduction; The His6-tag is TEV-cleavable; Crystallised with a dimer in the asymmetric unit; the tetramer is generated through a crystallographic 2-fold axis; also called Quintuple SER mutant; SER quintuple mutant
# Key:
# [1] = target: Cupriavidus metallidurans malonyl-CoA decarboxylase (CmMCD), residues 57-473 (Cupriavidus metallidurans); assay: not stated; oligomeric state of CmMCD in solution; method not given
# [2] = target: Rhodopseudomonas palustris malonyl-CoA decarboxylase (RpMCD), residues 8-451 (Rhodopseudomonas palustris); assay: multiangle static light scattering; oligomeric state in solution; data not shown
# [3] = target: the molecule itself; assay: as above
# [4] = target: the molecule itself; assay: SEC + AUC; analytical gel filtration on Superdex 200 in 10 mM HEPES pH 7.5, 150 mM NaCl; sedimentation velocity at 30,000 rpm, 4 °C, 50 μM HsMCD in the same buffer; oligomeric state in solution
molecule,measurement,setting,value
"Cupriavidus metallidurans malonyl-CoA decarboxylase (CmMCD), residues 57-473 (enzyme)",stoichiometry N,[1],2
"Rhodopseudomonas palustris malonyl-CoA decarboxylase (RpMCD), residues 8-451 (enzyme)",stoichiometry N,[2],4
B1,stoichiometry N,[3],4
B2,stoichiometry N,[4],4
B3,binding result,[4],binds
